Tests used:
[1] = target: T1, Fc tagged human SIRPα v1 ECD recombinant protein (human, UniProt P78324 31-370); assay: ELISA
T1 construct: range 1-370; cloned range M1-R370 includes the signal peptide; also called hSIRPα V1; not shown: human IgG Fc region (hFc) of the pCPC vector

[2] = target: T2, Fc tagged human SIRPα v2 ECD recombinant protein (human); assay: ELISA
T2 construct: range 1-369; cloned range M1-R369 includes the signal peptide; also called hSIRPα V2

[3] = target: T3, Fc tagged human SIRPβ ECD recombinant protein (human, UniProt O00241 30-371); assay: ELISA
T3 construct: range 1-371; cloned range includes the signal peptide; also called hSIRPβ; not shown: human IgG Fc region (hFc) of the pCPC vector

[4] = target: T4, Fc tagged human SIRPγ ECD recombinant protein (human, UniProt Q9P1W8 29-360); assay: ELISA
T4 construct: range 1-360; cloned range includes the signal peptide; also called hSIRPγ; not shown: human IgG Fc region (hFc) of the pCPC vector

[5] = target: T5, 6×His tagged human SIRPα v8 ECD recombinant protein (human); assay: ELISA
T5 construct: extracellular domain; bought; also called hSIRPα V8

[6] = target: T6, 6×His tagged human SIRPα v2 ECD recombinant protein (human); assay: SPR (Biacore)
[7] = target: T7, 6×His tagged C57BL/6 mouse SIRPα ECD recombinant protein (mouse (C57BL/6), UniProt P97797 32-373); assay: SPR (Biacore)
T7 construct: extracellular domain; bought; also called mSIRPα (C57BL/6); mouse SIRPα (C57BL/6) ECD
T7 sequence: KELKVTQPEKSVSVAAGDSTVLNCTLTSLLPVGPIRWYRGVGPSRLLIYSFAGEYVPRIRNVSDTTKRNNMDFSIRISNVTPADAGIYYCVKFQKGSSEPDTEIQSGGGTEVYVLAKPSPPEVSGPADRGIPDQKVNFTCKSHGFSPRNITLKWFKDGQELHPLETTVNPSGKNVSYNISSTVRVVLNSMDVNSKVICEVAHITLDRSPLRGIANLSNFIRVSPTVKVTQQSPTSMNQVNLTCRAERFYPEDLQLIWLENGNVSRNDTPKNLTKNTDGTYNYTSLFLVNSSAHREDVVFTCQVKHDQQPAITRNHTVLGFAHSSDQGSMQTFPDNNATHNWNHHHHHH

[8] = target: T6, 6×His tagged human SIRPα v2 ECD …; assay: SPR (Biacore), antibody captured
Experimental: (§1) Anti-SIRPα chimeric antibodies were characterized for binding affinity against human SIRPα v1, human SIRPα v2 and C57BL/6 mouse SIRPα using Biacore (GE). Briefly the antibodies to be tested were captured to CM5 chip (GE) using Human Antibody Capture Kit (GE). The antigens of 6×His tagged human SIRPα v1, human SIRPα v2 and C57BL/6 mouse SIRPα ECD recombinant proteins were serially diluted for multiple doses and injected at 30 μl/min for 180 s. Buffer flow was maintained for dissociation of 400 s. 3 M MgCl₂ was used for chip regeneration. The association and dissociation curves were fit with 1:1 binding model, and the Ka/Kd/KD values for each antibody were calculated.

[9] = target: T8, 6×His tagged human SIRPα v1 ECD recombinant protein (human, UniProt P78324 31-373); assay: SPR (Biacore), antibody captured
T8 construct: extracellular domain; bought; also called hSIRPα V1 (SPR antigen)
Experimental: as §1

[10] = target: T7, 6×His tagged C57BL/6 mouse SIRPα ECD …; assay: SPR (Biacore), antibody captured
Experimental: as §1

[11] = target: T9, biotin labeled soluble human SIRPα v1 ECD recombinant protein (human, UniProt P78324 31-373, biotin labeled); assay: competitive ELISA, hSIRPα/CD47 blocking
T9 construct: extracellular domain

[12] = target: T10, full length C57BL/6 mouse SIRPα stably expressed on CHOK1 cells (mouse (C57BL/6), UniProt P97797 32-513); assay: FACS on CHOK1-C57BL/6 mouse SIRPα-2.22 cells
T10 construct: whole, on cells; also called CHOK1-C57BL/6 mouse SIRPα-2.22 cells
T10 sequence (looked up): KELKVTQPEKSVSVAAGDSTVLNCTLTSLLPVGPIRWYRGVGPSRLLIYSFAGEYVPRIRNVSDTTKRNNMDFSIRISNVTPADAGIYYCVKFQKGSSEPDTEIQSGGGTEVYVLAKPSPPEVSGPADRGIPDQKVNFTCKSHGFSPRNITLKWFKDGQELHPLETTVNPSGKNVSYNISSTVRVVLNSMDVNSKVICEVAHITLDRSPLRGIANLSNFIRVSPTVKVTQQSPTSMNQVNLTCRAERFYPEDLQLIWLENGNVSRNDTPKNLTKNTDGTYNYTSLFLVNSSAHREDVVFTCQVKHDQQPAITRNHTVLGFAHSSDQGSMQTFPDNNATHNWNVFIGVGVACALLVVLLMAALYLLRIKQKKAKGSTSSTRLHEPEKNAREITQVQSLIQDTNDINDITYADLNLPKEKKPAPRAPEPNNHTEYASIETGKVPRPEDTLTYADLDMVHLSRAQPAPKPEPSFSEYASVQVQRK
Experimental: Species cross reactivity of the purified hybridoma antibodies against human, cyno and mouse SIRPα was determined by FACS assay using CHOK1-human SIRPα v1-1B4 cells, CHOK1-cyno SIRPα-2A2 cells, and CHOK1-C57BL/6 mouse SIRPα-2.22 cells, which stably expressing SIRPα protein. Briefly the antibodies were incubated with 2×10⁵ target cells at 4° C. for 1 hour. After washing, fluorescence labeled anti-mouse or anti-human IgG 2nd antibody (Life Technologies) was added and incubated at 4° C. for 1 hour. Geometric median fluorescence intensity was detected and EC₅₀ was calculated. In particular, it is noted, in contrast to the other antibodies tested in the same experiment, 060 cannot bind with cyno SIRPα and 035 has cross reactivity against C57BL/6 mouse SIRPα.

[13] = target: T7, 6×His tagged C57BL/6 mouse SIRPα ECD …; assay: ELISA on coated mouse SIRPα (C57BL/6) ECD [Continued) F]

T8 sequence (P78324 other isoform, or with tags, fused parts or gaps): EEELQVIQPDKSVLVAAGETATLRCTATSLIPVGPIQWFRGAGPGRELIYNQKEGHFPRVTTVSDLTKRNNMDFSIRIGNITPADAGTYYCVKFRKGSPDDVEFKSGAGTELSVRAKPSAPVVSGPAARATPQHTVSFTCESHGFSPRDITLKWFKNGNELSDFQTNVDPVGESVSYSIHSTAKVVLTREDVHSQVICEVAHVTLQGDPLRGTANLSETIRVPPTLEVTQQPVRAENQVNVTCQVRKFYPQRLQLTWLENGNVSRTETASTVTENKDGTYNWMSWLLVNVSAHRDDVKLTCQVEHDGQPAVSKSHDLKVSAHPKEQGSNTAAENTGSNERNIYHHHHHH
T6 sequence (chain, as listed by the source): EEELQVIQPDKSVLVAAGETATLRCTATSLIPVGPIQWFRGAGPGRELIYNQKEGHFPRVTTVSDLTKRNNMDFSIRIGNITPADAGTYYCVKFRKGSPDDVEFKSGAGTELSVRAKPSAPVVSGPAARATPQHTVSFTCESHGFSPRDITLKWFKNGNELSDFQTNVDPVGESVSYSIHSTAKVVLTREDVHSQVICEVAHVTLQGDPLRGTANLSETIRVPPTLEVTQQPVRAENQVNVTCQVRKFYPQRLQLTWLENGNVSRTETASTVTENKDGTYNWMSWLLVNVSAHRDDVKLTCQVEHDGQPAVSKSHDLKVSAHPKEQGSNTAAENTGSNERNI
T3 sequence (O00241 30-371 limits assumed, form in doubt): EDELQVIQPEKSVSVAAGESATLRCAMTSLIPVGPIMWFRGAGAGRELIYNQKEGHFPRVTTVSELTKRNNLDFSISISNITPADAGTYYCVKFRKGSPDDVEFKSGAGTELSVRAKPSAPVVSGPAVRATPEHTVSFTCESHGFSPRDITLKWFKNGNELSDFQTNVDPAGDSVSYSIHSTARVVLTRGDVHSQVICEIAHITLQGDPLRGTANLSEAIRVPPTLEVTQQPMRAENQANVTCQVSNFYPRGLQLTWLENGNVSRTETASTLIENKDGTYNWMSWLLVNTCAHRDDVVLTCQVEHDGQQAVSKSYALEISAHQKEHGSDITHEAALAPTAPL
T1 sequence (P78324 31-370 limits assumed): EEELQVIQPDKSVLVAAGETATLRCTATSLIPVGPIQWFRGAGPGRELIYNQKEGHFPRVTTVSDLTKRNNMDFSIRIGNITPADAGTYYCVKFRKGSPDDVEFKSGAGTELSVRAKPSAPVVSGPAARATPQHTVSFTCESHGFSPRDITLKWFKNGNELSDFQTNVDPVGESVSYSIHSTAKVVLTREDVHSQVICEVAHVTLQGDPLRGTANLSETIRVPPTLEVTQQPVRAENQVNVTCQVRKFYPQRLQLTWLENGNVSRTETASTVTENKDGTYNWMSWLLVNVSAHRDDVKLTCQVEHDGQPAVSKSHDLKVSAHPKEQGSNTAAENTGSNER
T9 sequence (P78324 31-373): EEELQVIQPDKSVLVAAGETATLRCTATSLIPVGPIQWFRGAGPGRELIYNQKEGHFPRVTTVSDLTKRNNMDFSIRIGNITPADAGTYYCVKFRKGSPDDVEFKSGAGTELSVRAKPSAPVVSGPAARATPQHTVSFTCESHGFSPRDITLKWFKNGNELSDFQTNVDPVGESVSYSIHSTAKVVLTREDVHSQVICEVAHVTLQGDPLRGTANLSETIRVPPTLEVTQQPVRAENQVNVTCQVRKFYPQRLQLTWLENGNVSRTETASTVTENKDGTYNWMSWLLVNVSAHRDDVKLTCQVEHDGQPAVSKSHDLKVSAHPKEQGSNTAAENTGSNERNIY
T4 sequence (Q9P1W8 29-360 limits assumed, form in doubt): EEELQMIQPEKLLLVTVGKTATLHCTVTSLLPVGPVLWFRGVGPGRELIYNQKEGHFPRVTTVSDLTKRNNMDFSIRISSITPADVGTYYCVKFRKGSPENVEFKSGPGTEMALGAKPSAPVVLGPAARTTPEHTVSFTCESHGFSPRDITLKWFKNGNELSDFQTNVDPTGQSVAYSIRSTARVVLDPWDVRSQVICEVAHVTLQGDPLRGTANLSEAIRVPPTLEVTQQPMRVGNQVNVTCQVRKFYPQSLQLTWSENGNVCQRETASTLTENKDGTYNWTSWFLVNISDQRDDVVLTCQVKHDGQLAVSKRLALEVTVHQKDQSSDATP

EC50 [1]: 0.16 nM | EC50 [2]: 0.13 nM | EC50 [3]: 0.13 nM | EC50 [4]: 16.4 nM | EC50 [5]: 0.2 nM | Kd [6]: 1.39 nM | Kd [7]: 5.27 µM | Kd [8]: 3.82 nM | koff [8]: 0.000238 s⁻¹ | kon [8]: 62100 M⁻¹ s⁻¹ | Kd [9]: 1.89 nM | koff [9]: 0.000274 s⁻¹ | kon [9]: 145000 M⁻¹ s⁻¹ | Kd [10]: 5.27 µM | koff [10]: 0.0247 s⁻¹ | kon [10]: 4690 M⁻¹ s⁻¹ | IC50 [11]: 1.03 nM | EC50 (read off the curve) [12]: ~0.3 µg/mL | EC50 (read off the curve) [13]: ~0.3 µg/mL
B1: chimeric antibody 035c (antibody, V domains shown)
VH: QIQLVQSGPELRKPGETVKISCKASGYSFTNYAMNWVKQAPGKVLKWMGFINTYTGEPTYADDFKGRFAFSLETSASTAYLQINNLKNEDTATYFCTRTRGYYDFDGGAFDYWGQGTSLTVSS
VL: DIVMTQSQKFMSTSIGDRVSVTCKASQNVGTHLAWYQQKPGQSPKALIFSASYRYIGVPDRFTGSGSGTDFTLTITNVQSEDLAEYFCQQYNTYPLTFGAGTKLELK

Source: US20210347908A1 (ELPISCIENCE SUZHOU BIOPHARMA, published 2021)
